Results on 4 molecules are retold here after US20240336900A1, “METHODS AND COMPOSITIONS RELATED TO MODIFIED METHYLTRANSFERASES AND ENGINEERED BIOSENSORS” (BOARD OF REGENTS, THE UNIVERSITY OF TEXAS SYSTEM, priority 2023, published 2024).

Residue numbers refer to the chain shown, from its start. Names may count otherwise.

Series [1] in a line: Sensitivity and selectivity of evolved RamR sensor variants. It counts as cell-based, Escherichia coli. Here is the method:
Cell culture (20 μl) bearing the sensor library was seeded into 5 ml fresh LB containing appropriate antibiotics, 100 μg ml-1 zeocin (Thermo Fisher, R25001) and 100 uM of norbelladine (for round two) and grown at 37° C. for 7 h. Following incubation, 0.5 μl of culture was diluted into 1 ml LB medium, from which 100 μl was further diluted into 900 μl LB medium. Three hundred microliters of this mixture was then plated across three LB agar plates (100 μL per plate) containing carbenicillin, chloramphenicol and 4NB dissolved in DMSO. Plates were incubated overnight at 37° C. The following day, the brightest colonies were picked and grown overnight in 1 ml LB medium containing appropriate antibiotics in a 96-deep-well plate sealed with an AeraSeal film at 37° C. A glycerol stock of cells containing pSELIS-RamR and pReg-RamR encoding the template RamR variant was also inoculated into 5 ml LB for overnight growth.
The following day, 20 μl of each culture was used to inoculate two separate wells in a new 96-deep-well plate containing 900 μl LB medium. Additionally, eight separate wells containing 1 ml LB medium were inoculated with 20 μl of the overnight culture expressing the parental RamR variant. After 2 h of growth at 37° C., the top half of the 96-well plate was induced with 100 μl LB medium containing 10 μl DMSO, whereas the bottom half of the plate was induced with 100 μl LB medium containing 4NB dissolved in 10 μl DMSO. The concentration of 4NB used for induction is typically the same concentration used in the LB agar plate for screening during that particular round of evolution. Cultures were grown for an additional 4 h at 37° C. and 250 r.p.m. and subsequently centrifuged (3,500 g, 4° C., 10 min). Supernatant was removed, and cell pellets were resuspended in 1 ml PBS. One hundred microliters of the cell resuspension for each condition was transferred to a 96-well microtiter plate, from which the fluorescence (excitation, 485 nm; emission, 509 nm) and absorbance (600 nm) were measured using the Tecan Infinite M1000 plate reader. Clones with the highest signal-to-noise ratio (generally the top 5-10% of the screened clones) were then sequenced and subcloned into a fresh pReg-RamR vector.
For sensor variant validation, the subcloned pReg-RamR vectors expressing the sensor variants were transformed into DH10B cells expressing Pramr-GFP. […]
Glycerol stocks (20% glycerol) of strains containing the plasmids of interest were inoculated into 1 ml LB medium and grown overnight at 37° C. […] The cell resuspension (100 μl) for each condition was transferred to a 96-well microtiter plate, from which the fluorescence (excitation, 485 nm; emission, 509 nm) and absorbance (600 nm) were measured using the Tecan Infinite M1000 plate reader.

Series [2] is described as follows: HPLC and LC/MS analysis of in vivo Nb4OMT reaction supernatant. The series is classed as cell-based, Escherichia coli. Here is the method:
Assay samples were filtered using a 0.2-um PTFE syringe filter prior to running the HPLC. The measurement of Norbelladine and 4-O'Methyl-norbelladine was performed using a Vanquish HPLC system (Thermo Fisher Scientific) equipped with a BDS Hypersil TM C18 (3.0×150 mm 2, 3 um) (Thermo Fisher Scientific) with detection wavelength 277 nm. The mobile phase consisted of 0.1% formic acid in water or 0.1% formic acid in acetonitrile over the course of 28 minutes under the following conditions: 10% organic (vol/vol) for 2 minutes, 10 to 30% organic (vol/vol) for 13 minutes, 30 to 90% organic (vol/vol) for 0.1 minutes, 90% organic (vol/vol) for 4.9 minutes, 90 to 10% organic (vol/vol) for 1 minute, and 10% organic (vol/vol) for 7 minutes. The flow rate was fixed at 0.8 ml min-1. A standard curve for norbelladine was prepared using synthesized norbelladine (see Chemical synthesis and NMR analysis of norbelladine). A standard curve for 4-O'Methyl-norbelladine was prepared using commercially available 4-O'Methyl-norbelladine.
Cells containing the plasmid expressing each Nb4OMT variant with the P150-RBS (RiboJ) promoter were transformed and plated onto an LB agar plate containing appropriate antibiotics. […]
Samples were analyzed using an Agilent 6530 Q-TOF LC-MS with a dual Agilent Jet Stream electrospray ionization source in positive mode. […]

The nature of series [3]: Differential scanning fluorimetry. The series is classed as physicochemical. The conditions noted are these: for Tm: 5 μM protein, SYPRO Orange. Here is the method: Purified Nb4OMT variants in the concentration of 5 μM were prepared in 96-well low-profile PCR plates (ABgene, Thermo Scientific). 10×SYPRO® Orange (Molecular Probes) was added into each well and mixed prior to measurement in an RT-PCR machine (LightCycler 480, Roche). The protein melting experiments were carried out with a continuous temperature acquisition mode using 10 acquisitions per 1° C. in each cycle from 20° C. to 95° C. The melting curves of the Nb4OMT variants were monophasic and Tm values were derived using Boltzmann equation.

A short description of series [4]: Steady state kinetics of purified Nb4OMT variants. The series is classed as biochemical. The conditions noted are these: for kcat: 3.5 nM enzyme, 500 μM SAM, 37° C., PBS pH 7.5; for Km: calculated by dividing kcat by kcat/Km. Here is the method:
Reactions for kinetics measurements were performed in triplicate for all enzyme variants. For each variant 1.5 ml reactions containing 3.5 nM of enzyme, 500 μM SAM, 2 mM CaCl2), and 15.625, 31.25, 62.5, 125, 250, or 500 μM norbelladine in PBS pH 7.5 were incubated at 37° C. for 4 hours. Every hour a 200 μl aliquot of each reaction was quenched by pipetting it into a 1.5 ml microcentrifuge tube with 20 μl of 2M HCl. The concentration of 4′-O-Methylnorbelladine was then determined using HPLC as described.
Kinetic data were fit in KinTek Explorer simulation and data fitting software v11 (Roy, 2018). The following minimal model was used as an input. Each line represents a step in the model and the forward reaction goes from left to right while the reverse reaction goes from right to left as written. • (1) E+S=ES • (2) ES=EP • (3) EP=E+P • (4) S=P2
3.5 nM enzyme and 15.625, 31.25, 62.5, 125, 250, and 500 M substrate. The output observable was defined as EP+P. Substrate oxidation was modeled in step (4) as irreversible with a best fit value from globally fitting data from all variants to derive k4=0.00547 min^−1.To get kout/Km and kcat: k−1, k−2, and k−3 were locked at 0 min-1 (irreversible reactions). k+3 was locked at 10,000 min-1 as to not limit the rate of turnover. k+1 and k+2 were used as variable parameters in the fitting. Under these conditions, k+2=kcat and k+1=kcat/Km. For estimates of 95% confidence intervals on kinetic parameters, confidence contour analysis was used with the FitSpace function in KinTek Explorer (Bhattacharya, 2015). Confidence contour plots are calculated by systematically varying a single rate constant and holding it fixed at a particular value while refitting the data, allowing other rate constants to float. The goodness of fit was scored by the resulting χ^2 value. The confidence interval is defined based on a threshold in χ^2 calculated from the F-distribution based on the number of data points and number of variable parameters to give the 95% confidence limits. For the data given in FIGS. 20A-20C, this threshold was 0.85 to estimate the upper and lower limits for each parameter. […] We then fit the data for these two variants to the model shown below, accounting for substrate inhibition.
As before, k+1 was allowed to float in the fitting to give kcat/Km, and k−1 was locked at 0 min^−1, k+2 was allowed to float in the fitting to give kcat, and k−2 was locked at 0 min^−1. k+3 was locked at 10,000 min^−1, and k−3 was locked at 0 min^−1. k+4 and k+6 were locked at 100 μM^−1 min^−1, and k−4 and k−6 were allowed to float in the fitting as linked parameters. k+5 was linked to k+1 and k−5 was locked at 0 min^−1. k−7 was locked at 0 min^−1, and k+7 was locked at 0.00547 min^−1.

Series [5] is described as follows: Biosensor-linked O-methyltransferase activity assay. To be noted: single mutational designs; 25, 30, 37 °C; 100 uM, 1 mM norbelladine. The series is classed as cell-based, Escherichia coli. Here is the method:
Nb4OMT was expressed with the P150-RBS (riboJ) promoter-RBS on the pReg-RamR plasmid backbone (no regulator present). Cells were co-transformed with both the 40MT plasmid and the 4NB reporter plasmid and plated on an LB agar plate containing appropriate antibiotics. Three individual colonies from each transformation were picked into LB and grown overnight. Resulting cultures were diluted 50-fold into 1 ml LB medium containing the indicated concentration of norbelladine in a 96-deep-well plate and were grown at the indicated temperature for 24 h. Subsequently, the fluorescence of cultures was measured in the same manner as previously described in Dose-response measurement above.

In general, kcat refers to the number of substrate molecules converted per active site and unit of time at saturation. A word on the Km: it is the concentration of substrate that gives half-maximal velocity.

B1: 4NB1.2: RamR variant bearing two amino acid substitutions, K63T and L66M (protein)
chain: MVARPKSEDKKQALLEAATQAIAQSGIAASTAVIARNAGVAEGTLFRYFATKDELINTLYLHLTQDMCQSMIMELDRSITDAKMMTRFIWNSYISWGLNHPARHRAIRQLAVSEKLTKETEQRADDMFPELRDLCHRSVLMVFMSDEYRAFGDGLFLALAETTMDFAARDPARAGEYIALGFEAMWRALTREEQ
modifications: Description of sequence: Improved biosensor variant K63T, L66M
With B1, the “selectivity for 4NB over norbelladine” value in series [1] is given as 20 fold.

B2: 4NB2.1: evolved RamR biosensor variant, K63T, L66M, C134D and S137G (protein)
chain: B1 chain with C135D, S138G
modifications: Description of sequence: Improved biosensor variant K63T, L66M, C134D, S137G
For the molecule B2, in series [1], the “selectivity for 4NB over norbelladine” value is listed as “over 80 fold” and the “sensitivity relative to the HPLC method” value is on record as “approximately 10 fold”. For the same molecule, the limit of detection entry in series [1] (4NB) is listed as “approximately 2.5 uM”.

B3: Wild-type Nb4OMT: natural norbelladine 4′-O-Methyltransferase from Narcissus pseudonarcissus (protein)
chain: MGASIDDYSLVHKNILHSEDLLKYILETSAYPREHEQLKGLREVTEKHEWSSALVPADEGLFLSMLLKLMNAKRTIEIGVYTGYSLLTTALALPEDGKITAIDVNKSYYEIGLPFIQKAGVEHKINFIESEALPVLDQMLEEMKEEDLYDYAFVDADKSNYANYHERLVKLVRIGGAILYDNTLWYGSVAYPEYPGLHPEEEVARLSFRNLNTFLAADPRVEISQVSIGDGVTICRRLY
modifications: Description of sequence: Natural enzyme, norbelladine 4'-O-Methyltransferase
notes: natural norbelladine 4′-O-Methyltransferase from Narcissus pseudonarcissus
Take B3: the regiospecificity entry in series [2] (3-OMe-norbelladine identified as minor component) is on record as “not highly regiospecific”. The Tm in series [3] stood at 52.8 °C. In series [4], the kcat was 1.22 s⁻¹ and the Km was 62 µM.

B4: A53M mutant: Nb4OMT variant with mutation A53M (protein)
chain: B3 chain with A53M
modifications: Description of sequence: Improved enzyme variant A53M
B4: the “fluorescent signal relative to the wild-type enzyme” value in series [5] was “significantly above the wild-type enzyme”. Also, the “reduction of 3-O'Methyl-norbelladine off-product” value in series [2] (relative to wild-type Nb4OMT) is “about 3 fold”. Further, in series [3], the “increase in Tm relative to the wild-type enzyme” value came out at 1.7 °C and the Tm amounted to 54.5 °C. In addition, in series [4], the “increase in keut relative to the wild-type enzyme” value is on record as greater than 2.1 fold, the “increase of kcal/Km relative to the wild-type enzyme” value was “about 2 fold”, the kcat is greater than 3.17 s⁻¹ and the Km is less than 90 µM. The substrate inhibition result in series [4] (steady state kinetic data, highest norbelladine concentration) is recorded as “affected by substrate inhibition”.
